From US20220242962A1 (APTEVO RESEARCH AND DEVELOPMENT, published 2022)

Assays:
[1] = target: T1, Full-length Cyno OX40 (cynomolgus monkey, UniProt P43489 29-277 (human entry)); assay: flow cytometry on CHOK1SV cells transfected with cynomolgus OX40, goat anti-human Fc secondary antibody, MFI (Mean)
T1 construct: on CHO-K1SV cells; also called OXF004; cynomolgus OX40
T1 chain: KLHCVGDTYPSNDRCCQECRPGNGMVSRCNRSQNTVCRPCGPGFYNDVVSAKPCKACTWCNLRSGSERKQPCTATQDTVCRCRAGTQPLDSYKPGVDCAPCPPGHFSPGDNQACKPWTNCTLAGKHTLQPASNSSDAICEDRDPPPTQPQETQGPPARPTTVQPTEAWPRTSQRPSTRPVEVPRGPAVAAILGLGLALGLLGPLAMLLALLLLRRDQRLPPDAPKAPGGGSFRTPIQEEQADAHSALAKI
Procedure: Serial dilutions of ADAPTIR™ constructs were incubated with transfected target cells and subsequently labelled with a fluorescently-conjugated goat-a-human Fc secondary antibody. […] (See Example 25.)

[2] = target: T2, Fc gamma receptor RIIA H167 (human, UniProt P12318 36-218); assay: SPR, construct immobilized, receptor injected at 2 uM
T2 construct: soluble SPR analyte
T2 sequence (looked up): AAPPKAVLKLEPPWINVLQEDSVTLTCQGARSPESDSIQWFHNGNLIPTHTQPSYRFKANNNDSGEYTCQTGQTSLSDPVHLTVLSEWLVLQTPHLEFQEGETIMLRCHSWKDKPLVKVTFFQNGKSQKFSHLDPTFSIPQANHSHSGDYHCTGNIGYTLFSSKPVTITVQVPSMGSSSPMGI
Procedure: (§1) Fcγ receptor binding to bispecific proteins was measured by Surface Plasmon Resonance on a Biacore 8K instrument at room temperature. Bispecific proteins with modified Fc regions to reduce binding to Fcγ receptors were directly immobilized on the surface of a CM5 sensor chip to a surface density of 4000 RU. A bispecific ADAPTIR™ protein with a wild type Fc was similarly immobilized to the surface as a positive control and used as a comparator to evaluate the reduction in binding resulting from changes incorporated into the Fc region amino acid sequence. Fcγ receptors (purchased from R&D Systems) were diluted to either 100 nM (FcγRI) or 2 μM (all other Fcγ receptors) in HBS-EP+ buffer before injecting over the surface of the prepared sensor chip at 30 μL/min for 60 seconds. Maximum RU values during association phase of each injection were used to compare the extent of binding of the modified Fc to wild type value and are reported in Table 17 below.

[3] = target: T3, Fc gamma receptor RIIA R167 (human, UniProt P12318 36-218); assay: as above
T3 construct: soluble SPR analyte
T3 sequence (looked up): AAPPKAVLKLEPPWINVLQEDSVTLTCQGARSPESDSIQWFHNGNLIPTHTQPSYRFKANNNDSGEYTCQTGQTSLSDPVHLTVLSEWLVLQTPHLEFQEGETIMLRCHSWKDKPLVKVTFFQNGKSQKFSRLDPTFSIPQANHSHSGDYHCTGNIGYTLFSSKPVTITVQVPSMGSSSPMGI
Procedure: as §1

[4] = target: T4, Fc gamma receptor RIIB/C (human, UniProt P31994 46-217); assay: as above
T4 construct: soluble SPR analyte
T4 sequence (looked up): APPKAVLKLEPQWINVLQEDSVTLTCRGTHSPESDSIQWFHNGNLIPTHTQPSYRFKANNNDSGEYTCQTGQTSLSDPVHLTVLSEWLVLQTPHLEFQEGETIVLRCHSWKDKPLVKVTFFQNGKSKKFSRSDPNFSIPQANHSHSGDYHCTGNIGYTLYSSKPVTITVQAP
Procedure: as §1

[5] = target: T5, Human 4-1BB ECD-AFH (human); assay: SPR (Biacore 8K), construct captured, monovalent ECD
T5 construct: entry includes the tags; also called FOB003; HUMAN CD137 ECD-AVI-FLAG-HIS
Procedure: (§2) Mouse anti-human IgG (GE, BR-1008-39) at 25 μg/ml in 10 mM sodium acetate pH 5.0 was immobilized at a density of ˜10,000 response units (RU) onto each flow cell of a CM5 research-grade sensor chip (GE) by standard amine coupling chemistry. Each binding protein at approximately 100 nM in HBS-EP+ with 0.2% BSA buffer was captured in a flow cell with the immobilized anti-human IgG at a flow rate of 10 μL/min for 20 seconds, leaving one flow cell surface unmodified as the reference. Using a single-cycle kinetics mode, five different concentrations of ECD were sequentially injected through each flow cell at 30 μL/min for 300 seconds followed by a 600 second dissociation period. Regeneration was achieved by injection of 3 M MgCl₂ at a flow rate of 30 μL/min for 30 seconds followed by HBS-EP+ with 0.2% BSA buffer stabilization for 1 min.
(§3) Sensorgrams obtained from kinetic SPR measurements were analyzed by the double subtraction method. The signal from the reference flow cell was subtracted from the analyte binding response obtained from flow cells with immobilized or captured ligands. Buffer reference responses were then averaged from multiple injections. The averaged buffer reference responses were then subtracted from analyte binding responses, and the final double-referenced data were analyzed with Biacore T200 Evaluation software (2.0, GE), globally fitting data to derive kinetic parameters. All sensorgrams were fitted using a simple one-to-one binding model.
(§4) Using the BIACORE 8K SPR system, the affinity of these constructs for human and cyno 4-1BB, and human and cyno OX40 ECD, were determined using the methods described above. Monovalent binding affinity was determined by capturing the ADAPTIR™ bispecific construct on the chip and injecting monovalent ECD of the target at multiple concentrations.

[6] = target: T6, Human OX40 ECD-AFH (human); assay: as above
T6 construct: ECD'; entry includes the C-terminal tags; also called OXF003; Human OX40 ECD-avi-flag-his
T6 chain: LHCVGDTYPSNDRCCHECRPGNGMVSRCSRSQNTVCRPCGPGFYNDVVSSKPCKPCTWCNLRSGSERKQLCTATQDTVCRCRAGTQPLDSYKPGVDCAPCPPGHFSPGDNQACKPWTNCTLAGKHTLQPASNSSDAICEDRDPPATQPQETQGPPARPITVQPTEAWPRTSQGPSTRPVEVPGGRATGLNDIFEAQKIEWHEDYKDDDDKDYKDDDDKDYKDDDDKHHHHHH
Procedure: as §2, §3, §4

Row | Binder | EC50 (read off the curve) [1] | Max RU value during association [2] | Max RU value during association [3] | Max RU value during association [4] | Kd [5] | koff [5] | kon [5] | Kd [6] | koff [6] | kon [6]
1 | FXX01066 (bispecific antibody, ADAPTIR scFv-Fc-scFv, anti-4-1BB (VH-VL) N-terminal, anti-OX40 C-terminal, PAA (del) Fc; also called FX01066) EVQLVQSGAEVKKPGASVKVSCKASGYTFTSYWMNWVRQAPGQGLEWMGNIYPSGGSTNYAQKFQGRVTMTVDTSTSTVYMELSSLRSEDTAVYYCASFSDGYYAYAMDYWGQGTLVTVSSGGGGSGGGGSGGGGSGGGGSEIVMTQSPATLSLSPGERATLSCRASQSVSSYLNWYQQKPGQAPRLLIYYASRRHTGIPARFSGSGSGTDFTLTISSLQPEDFAVYYCQQGYNLPYTFGQGTKVEIKEPKSSDKTHTCPPCPAPPAAAPSVFLFPPKPKDTLMISRTPEVTCVVVDVSHEDPEVKFNWYVDGVEVHNAKTKPREEQYNSTYRVVSVLTVLHQDWLNGKEYKCAVSNKALPAPIEKTISKAKGQPREPQVYTLPPSRDELTKNQVSLTCLVKGFYPSDIAVEWESNGQPENNYKTTPPVLDSDGSFFLYSKLTVDKSRWQQGNVFSCSVMHEALHNHYTQKSLSLSPGGGGSPSSYVLTQPPSVSVAPGQTARITCGGNNIGSKSVNWFQQKPGQAPVLVVYDDSGRPSGIPERFSGSTSGNTATLTISRVEAGDEADYYCQVWDSSSDHVVFGGGTKLTVLGGGGSGGGGSGGGGSGGGGSQVQLVESGGGVVQPGRSLRLSCAASGFTLSYYGMHWVRQAPGKGLEWVAAISHDGSDKYYADSVKGRFTISRDNSKNTLYLQMNSLRAEDTAVYYCSNDQFDPWGQGTLVTVSSR | ~2 nM | 14 RU | 92 RU | 21 RU | 16 nM | 0.0043 s⁻¹ | 270000 M⁻¹ s⁻¹ | < 1 nM | 0.00027 s⁻¹ | 1.1e+06 M⁻¹ s⁻¹
2 | FXX01101 (bispecific antibody, ADAPTIR anti-4-1BB (HL) x anti-OX40 with T86R; PAA (del) Fc; also called FX01101) EVQLVQSGAEVKKPGASVKVSCKASGYTFTSYWMNWVRQAPGQGLEWMGNIYPSGGSTNYAQKFQGRVTMTVDTSTSTVYMELSSLRSEDTAVYYCASFSDGYYAYAMDYWGQGTLVTVSSGGGGSGGGGSGGGGSGGGGSEIVMTQSPATLSLSPGERATLSCRASQSVSSYLNWYQQKPGQAPRLLIYYASRRHTGIPARFSGSGSGTDFTLTISSLQPEDFAVYYCQQGYNLPYTFGQGTKVEIKEPKSSDKTHTCPPCPAPPAAAPSVFLFPPKPKDTLMISRTPEVTCVVVDVSHEDPEVKFNWYVDGVEVHNAKTKPREEQYNSTYRVVSVLTVLHQDWLNGKEYKCAVSNKALPAPIEKTISKAKGQPREPQVYTLPPSRDELTKNQVSLTCLVKGFYPSDIAVEWESNGQPENNYKTTPPVLDSDGSFFLYSKLTVDKSRWQQGNVFSCSVMHEALHNHYTQKSLSLSPGGGGSPSSYVLTQPPSVSVAPGQTARITCGGNNIGSKSVNWFQQKPGQAPVLVVYDDSGRPSGIPERFSGSTSGNTATLTISRVEAGDEADYYCQVWDSSSDHVVFGGGTKLTVLGGGGSGGGGSGGGGSGGGGSQVQLVESGGGVVQPGRSLRLSCAASGFTLSYYGMHWVRQAPGKGLEWVAAISHDGSDKYYADSVKGRFTISRDNSKNRLYLQMNSLRAEDTAVYYCSNDQFDPWGQGTLVTVSSR | 1 to 2 nM | 14 RU | 94 RU | 21 RU | 17 nM | 0.0046 s⁻¹ | 270000 M⁻¹ s⁻¹ | < 1 nM | 0.00029 s⁻¹ | 980000 M⁻¹ s⁻¹
3 | FXX01102 (bispecific antibody, ADAPTIR anti-4-1BB (HL) x anti-OX40 with Q17K and T86R; PAA (del) Fc; also called FX01102) EVQLVQSGAEVKKPGASVKVSCKASGYTFTSYWMNWVRQAPGQGLEWMGNIYPSGGSTNYAQKFQGRVTMTVDTSTSTVYMELSSLRSEDTAVYYCASFSDGYYAYAMDYWGQGTLVTVSSGGGGSGGGGSGGGGSGGGGSEIVMTQSPATLSLSPGERATLSCRASQSVSSYLNWYQQKPGQAPRLLIYYASRRHTGIPARFSGSGSGTDFTLTISSLQPEDFAVYYCQQGYNLPYTFGQGTKVEIKEPKSSDKTHTCPPCPAPPAAAPSVFLFPPKPKDTLMISRTPEVTCVVVDVSHEDPEVKFNWYVDGVEVHNAKTKPREEQYNSTYRVVSVLTVLHQDWLNGKEYKCAVSNKALPAPIEKTISKAKGQPREPQVYTLPPSRDELTKNQVSLTCLVKGFYPSDIAVEWESNGQPENNYKTTPPVLDSDGSFFLYSKLTVDKSRWQQGNVFSCSVMHEALHNHYTQKSLSLSPGGGGSPSSYVLTQPPSVSVAPGKTARITCGGNNIGSKSVNWFQQKPGQAPVLVVYDDSGRPSGIPERFSGSTSGNTATLTISRVEAGDEADYYCQVWDSSSDHVVFGGGTKLTVLGGGGSGGGGSGGGGSGGGGSQVQLVESGGGVVQPGRSLRLSCAASGFTLSYYGMHWVRQAPGKGLEWVAAISHDGSDKYYADSVKGRFTISRDNSKNRLYLQMNSLRAEDTAVYYCSNDQFDPWGQGTLVTVSSR | 1 to 2 nM | 13 RU | 88 RU | 19 RU | 16 nM | 0.0047 s⁻¹ | 290000 M⁻¹ s⁻¹ | < 1 nM | 0.00025 s⁻¹ | 1e+06 M⁻¹ s⁻¹
4 | FXX01111 (bispecific antibody, ADAPTIR anti-4-1BB x anti-OX40, pI variant; PAA (del) Fc) EVQLVQSGAEVKKPGASVKVSCKASGYTFTSYWMNWVRQAPGQGLEWMGNIYPSGGSTNYAQKFQGRVTMTVDTSTSTVYMELSSLRSEDTAVYYCASFSDGYYAYAMDYWGQGTLVTVSSGGGGSGGGGSGGGGSGGGGSEIVMTQSPATLSLSPGERATLSCRASQSVSSYLNWYQQKPGQAPRLLIYYASRRHTGIPARFSGSGSGTDFTLTISSLQPEDFAVYYCQQGYNLPYTFGQGTKVEIKEPKSSDKTHTCPPCPAPPAAAPSVFLFPPKPKDTLMISRTPEVTCVVVDVSHEDPEVKFNWYVDGVEVHNAKTKPREEQYNSTYRVVSVLTVLHQDWLNGKEYKCAVSNKALPAPIEKTISKAKGQPREPQVYTLPPSRDELTKNQVSLTCLVKGFYPSDIAVEWESNGQPENNYKTTPPVLDSDGSFFLYSKLTVDKSRWQQGNVFSCSVMHEALHNHYTQKSLSLSPGGGGSPSSYVLTQPPSVSVAPGQTARITCGGNNIGSKSVNWFQQKPGQAPVLVVYDDSGRPSGVPNRFSGSTSGNTATLTISRVEAGDEADYYCQVWDSSSDHVVFGGGTKLTVLGGGGSGGGGSGGGGSGGGGSQVQLVESGGGVVQPGRSLRLSCAASGFTLSYYGMHWVRQAPGKGLEWVAAISHDGSDKYYADSVKGRFTISRDNSKNTLYLQMNSLRAEDTAVYYCSNDQFDPWGQGTLVTVSSR | 1 to 2 nM | 13 RU | 86 RU | 20 RU | 17 nM | 0.0045 s⁻¹ | 270000 M⁻¹ s⁻¹ | < 1 nM | 0.00038 s⁻¹ | 930000 M⁻¹ s⁻¹
